The target of the assay is SARS-CoV-2 S receptor-binding domain (RBD), construct for crystallography (SARS-CoV-2, GenBank QHD43416.1 …, UniProt P0DTC2). Put plainly: crystal structure.

Numbering of substitutions follows the chain as printed. Names and notes keep the numbering of the source.

B1: C1A-B3 Fab (Fab, V domains shown)
VH: EVQLVESGGGLIQPGGSLRLSCAASGFTVSSNYMSWVRQAPGKGLEWVSVIYSGGTTYYADSVKGRFTISRDNSKNTVFLQMNSLRAEDTAVYYCARGDVSGYRYGLDYWGQGTLVTVS
VL: DIQLTQSPSSLSASVGDRVTITCRASQGISSYLAWYQQKPGKAPKLLIYAASTLQSGVPSRFSGSGSGTDFTLTISSLQPEDFATYYCQQLNSYPGTFGQGTKLEIK
On to B1, for which the binding result is given as “binds”.

B2: C1A-C2 Fab (Fab, V domains shown)
VH: B1 VH with A24V, S31N, V78L, F79Y
VL: B1 VL with S14F, Q27E, K42N, Q55E
Turning to B2, the binding result is “binds”.

B3: C1A-F10 Fab (Fab, V domains shown)
VH: B1 VH with V78L, F79Y
VL: B1 VL with Q55E, S56N
B3: the binding result is reported as “binds”.

For the origin of these results see publication doi:10.1101/2020.11.13.381533 (bioRxiv, 2020).
